Measurements published in US20160272683A1 (Novo Nordisk, published 2016).
Numbered stars: 1 amine (or outer) side, 2 acyl side, 3 side chain; on linkers, the order of the positions; unused ones are H or OH. * marks the point of attachment. C20 diacid = O=C(O)CCCCCCCCCCCCCCCCCCC(=O)*; γGlu = O=C(O)[C@H](CCC(=O)[*:2])N[*:1]

T1: human amylin receptor (human calcitonin receptor + human RAMP3) (human) (UniProt P30988)
T1 sequence (looked up) 1: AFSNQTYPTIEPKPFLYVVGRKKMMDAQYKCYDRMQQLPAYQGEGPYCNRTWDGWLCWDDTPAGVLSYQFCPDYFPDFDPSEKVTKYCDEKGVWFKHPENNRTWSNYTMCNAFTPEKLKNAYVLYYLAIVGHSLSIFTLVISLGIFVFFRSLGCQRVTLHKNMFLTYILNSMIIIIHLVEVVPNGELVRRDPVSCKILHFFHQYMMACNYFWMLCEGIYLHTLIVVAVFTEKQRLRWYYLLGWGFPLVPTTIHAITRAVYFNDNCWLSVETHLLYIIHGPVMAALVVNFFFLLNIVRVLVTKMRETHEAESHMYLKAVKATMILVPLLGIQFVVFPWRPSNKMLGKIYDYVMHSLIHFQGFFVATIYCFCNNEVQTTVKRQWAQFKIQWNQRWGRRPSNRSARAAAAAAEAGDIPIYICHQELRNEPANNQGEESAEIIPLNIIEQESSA
T1 sequence (looked up) 2: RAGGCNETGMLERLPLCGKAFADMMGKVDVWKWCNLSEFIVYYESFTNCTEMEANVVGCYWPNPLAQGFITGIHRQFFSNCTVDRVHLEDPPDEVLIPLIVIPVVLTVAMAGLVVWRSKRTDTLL

B1: [N-terminal(C20 diacid-gGlu), des1, 23Y, 30S, 31G]mimylin (peptide)
peptide: {C20 diacid-γGlu}-ASELSTAALGRLSAELHELATYPRTETGSGSP-NH2
SMILES: CC(C)C[C@H](NC(=O)[C@H](C)NC(=O)[C@H](C)NC(=O)[C@@H](NC(=O)[C@H](CO)NC(=O)[C@H](CC(C)C)NC(=O)[C@H](CCC(=O)O)NC(=O)[C@H](CO)NC(=O)[C@H](C)NC(=O)CC[C@H](NC(=O)CCCCCCCCCCCCCCCCCCC(=O)O)C(=O)O)[C@@H](C)O)C(=O)NCC(=O)N[C@@H](CCCNC(=N)N)C(=O)N[C@@H](CC(C)C)C(=O)N[C@@H](CO)C(=O)N[C@@H](C)C(=O)N[C@@H](CCC(=O)O)C(=O)N[C@@H](CC(C)C)C(=O)N[C@@H](Cc1c[nH]cn1)C(=O)N[C@@H](CCC(=O)O)C(=O)N[C@@H](CC(C)C)C(=O)N[C@@H](C)C(=O)N[C@H](C(=O)N[C@@H](Cc1ccc(O)cc1)C(=O)N1CCC[C@H]1C(=O)N[C@@H](CCCNC(=N)N)C(=O)N[C@H](C(=O)N[C@@H](CCC(=O)O)C(=O)N[C@H](C(=O)NCC(=O)N[C@@H](CO)C(=O)NCC(=O)N[C@@H](CO)C(=O)N1CCC[C@H]1C(N)=O)[C@@H](C)O)[C@@H](C)O)[C@@H](C)O
B2: [N-terminal(C20 diacid-gGlu), 1A, 23Y, 30S, 31G]mimylin (peptide)
peptide: {C20 diacid-γGlu}-AASELSTAALGRLSAELHELATYPRTETGSGSP-NH2
SMILES: CC(C)C[C@H](NC(=O)[C@H](C)NC(=O)[C@H](C)NC(=O)[C@@H](NC(=O)[C@H](CO)NC(=O)[C@H](CC(C)C)NC(=O)[C@H](CCC(=O)O)NC(=O)[C@H](CO)NC(=O)[C@H](C)NC(=O)[C@H](C)NC(=O)CC[C@H](NC(=O)CCCCCCCCCCCCCCCCCCC(=O)O)C(=O)O)[C@@H](C)O)C(=O)NCC(=O)N[C@@H](CCCNC(=N)N)C(=O)N[C@@H](CC(C)C)C(=O)N[C@@H](CO)C(=O)N[C@@H](C)C(=O)N[C@@H](CCC(=O)O)C(=O)N[C@@H](CC(C)C)C(=O)N[C@@H](Cc1c[nH]cn1)C(=O)N[C@@H](CCC(=O)O)C(=O)N[C@@H](CC(C)C)C(=O)N[C@@H](C)C(=O)N[C@H](C(=O)N[C@@H](Cc1ccc(O)cc1)C(=O)N1CCC[C@H]1C(=O)N[C@@H](CCCNC(=N)N)C(=O)N[C@H](C(=O)N[C@@H](CCC(=O)O)C(=O)N[C@H](C(=O)NCC(=O)N[C@@H](CO)C(=O)NCC(=O)N[C@@H](CO)C(=O)N1CCC[C@H]1C(N)=O)[C@@H](C)O)[C@@H](C)O)[C@@H](C)O
B3: [N-terminal(C20 diacid-gGlu), des1, 30S, 31G, 33H]mimylin (peptide)
peptide: {C20 diacid-γGlu}-ASELSTAALGRLSAELHELATLPRTETGSGSH-NH2
SMILES: CC(C)C[C@H](NC(=O)[C@H](C)NC(=O)[C@H](C)NC(=O)[C@@H](NC(=O)[C@H](CO)NC(=O)[C@H](CC(C)C)NC(=O)[C@H](CCC(=O)O)NC(=O)[C@H](CO)NC(=O)[C@H](C)NC(=O)CC[C@H](NC(=O)CCCCCCCCCCCCCCCCCCC(=O)O)C(=O)O)[C@@H](C)O)C(=O)NCC(=O)N[C@@H](CCCNC(=N)N)C(=O)N[C@@H](CC(C)C)C(=O)N[C@@H](CO)C(=O)N[C@@H](C)C(=O)N[C@@H](CCC(=O)O)C(=O)N[C@@H](CC(C)C)C(=O)N[C@@H](Cc1c[nH]cn1)C(=O)N[C@@H](CCC(=O)O)C(=O)N[C@@H](CC(C)C)C(=O)N[C@@H](C)C(=O)N[C@H](C(=O)N[C@@H](CC(C)C)C(=O)N1CCC[C@H]1C(=O)N[C@@H](CCCNC(=N)N)C(=O)N[C@H](C(=O)N[C@@H](CCC(=O)O)C(=O)N[C@H](C(=O)NCC(=O)N[C@@H](CO)C(=O)NCC(=O)N[C@@H](CO)C(=O)N[C@@H](Cc1c[nH]cn1)C(N)=O)[C@@H](C)O)[C@@H](C)O)[C@@H](C)O
B4: [N-terminal(C20 diacid-gGlu), des1, 12H, 30S, 31G]mimylin (peptide)
peptide: {C20 diacid-γGlu}-ASELSTAALGHLSAELHELATLPRTETGSGSP-NH2

These binders were tested against T1, human amylin receptor (human calcitonin receptor + human RAMP3) (human) (assay: whole-cell competition vs 125I-rat amylin (Assay Va)).

First: B1
Second: B2
The IC50 of the first is 2.1-fold higher: 2.61 nM for the first, 1.23 nM for the second. The second is the more potent here.

Compared with B3, B4 is 1.5-fold lower in IC50: 1.07 nM for the first, 0.697 nM for the second.

Each binder was assayed against rat calcitonin receptor (rat) (UniProt P32214) (assay: SPA competition vs 125I-calcitonin, membranes with rat CTR (Assay VIII)).

Going from B1 to B2, the IC50 falls from 0.202 nM to 0.044 nM (4.6-fold).

Compared with B3, B4 is 4.2-fold higher in IC50: 0.02 nM for the first, 0.085 nM for the second.

These binders were tested against rat amylin receptor (rat calcitonin receptor with rat RAMP 3) (rat) (UniProt P32214) (assay: SPA competition vs 125I-rat amylin, membranes with rat CTR + rat RAMP3 (Assay VI)).

Going from B1 to B2, the IC50 falls from 3.99 nM to 0.025 nM (160-fold). The second is the more potent here.

First: B3
Second: B4
The IC50 of the first is 33-fold lower: 0.046 nM for the first, 1.53 nM for the second. The first is the more potent here.
